Earlier results in article PMC7662479.

Target: Angiopoietin-2 (Homo sapiens) (UniProt O15123)
Chain of UniProt O15123 (O15123 19-496): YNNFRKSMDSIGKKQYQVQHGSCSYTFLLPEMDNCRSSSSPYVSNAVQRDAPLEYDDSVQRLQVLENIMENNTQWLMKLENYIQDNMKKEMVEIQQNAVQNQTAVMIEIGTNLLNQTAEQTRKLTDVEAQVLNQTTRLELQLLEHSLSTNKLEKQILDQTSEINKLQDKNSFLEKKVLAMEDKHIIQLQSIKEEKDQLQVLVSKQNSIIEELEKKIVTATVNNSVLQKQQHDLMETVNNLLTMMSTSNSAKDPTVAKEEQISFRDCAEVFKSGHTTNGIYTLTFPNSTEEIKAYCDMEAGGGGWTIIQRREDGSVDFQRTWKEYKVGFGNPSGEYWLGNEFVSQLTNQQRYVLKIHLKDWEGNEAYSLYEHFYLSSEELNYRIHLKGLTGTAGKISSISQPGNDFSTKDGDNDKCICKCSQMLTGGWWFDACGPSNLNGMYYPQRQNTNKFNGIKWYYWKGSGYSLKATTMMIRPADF

For nesvacumab, the Kd is listed as 0.024 nM.
